The supplement of paper PMC12458215
± gives the uncertainty stated by the source.

System: HEK293T
Assay: plasma membrane surface immunostaining intensity (anti-HA, deep receptor scanning) (arbitrary fluorescence units); higher = higher plasma membrane expression

| Sequence | plasma membrane surface immunostaining intensity (GPCR class: A) | also measured |
| --- | --- | --- |
| MDLKTVLSLPRYPGEFLHPVVYACTAVMLLCLLASFVTYIVHQSAIRISRKGRHTLLNFCFHAALTFTVFAGGINRTKYPILCQAVGIVLHYSTLSTMLWIGVTARNIYKQVTKKAPLCLDTDQPPYPRQPLLRFYLVSGGVPFIICGVTAATNIRNYGTEDEDTAYCWMAWEPSLGAFYGPAAIITLVTCVYFLGTYVQLRRHPGRRYELRTQPEEQRRLATPEGGRGIRPGTPPAHDAPGASVLQNEHSFQAQLRAAAFTLFLFTATWAFGALAVSQGHFLDMVFSCLYGAFCVTLGLFVLIHHCAKREDVWQCWWACCPPRKDAHPALDANGAALGRAACLHSPGLGQPRGFAHPPGPCKMTNLQAAQGHASCLSPATPCCAKMHCEPLTADEAHVHLQEEGAFGHDPHLHGCLQGRTKPPYFSRHPAEEPEYAYHIPSSLDGSPRSSRTDSPPSSLDGPAGTHTLACCTQGDPFPMVTQPEGSDGSPALYSCPTQPGREAALGPGHLEMLRRTQSLPFGGPSQNGLPKGKLLEGLPFGTDGTGNIRTGPWKNETTV [ADGRA1] |  | plasma membrane surface immunostaining intensity (GPCR class: B): 2640 ± 630 |
| MQLNNNVTEFILLGLTQDPFWKKIVFVIFLRLYLGTLLGNLLIIISVKTSQALKNPMFFFLFYLSLSDTCLSTSITPRMIVDALLKKTTISFSECMIQVFSSHVFGCLEIFILILTAVDRYVDICKPLHYMTIISQWVCGVLMAVAWVGSCVHSLVQIFLALSLPFCGPNVINHCFCDLQPLLKQACSETYVVNLLLVSNSGAICAVSYVMLIFSYVIFLHSLRNHSAEVIKKALSTCVSHIIVVILFFGPCIFMYTCLATVFPMDKMIAVFYTVGTSFLNPVIYTLKNTEVKSAMRKLWSKKLITDDKR [OR4C16] |  | plasma membrane surface immunostaining intensity (GPCR class: A (Olfactory)): 162 ± 72 |
| MNVSGCPGAGNASQAGGGGGWHPEAVIVPLLFALIFLVGTVGNTLVLAVLLRGGQAVSTTNLFILNLGVADLCFILCCVPFQATIYTLDGWVFGSLLCKAVHFLIFLTMHASSFTLAAVSLDRYLAIRYPLHSRELRTPRNALAAIGLIWGLSLLFSGPYLSYYRQSQLANLTVCHPAWSAPRRRAMDICTFVFSYLLPVLVLGLTYARTLRYLWRAVDPVAAGSGARRAKRKVTRMILIVAALFCLCWMPHHALILCVWFGQFPLTRATYALRILSHLVSYANSCVNPIVYALVSKHFRKGFRTICAGLLGRAPGRASGRVCAAARGTHSGSVLERESSDLLHMSEAAGALRPCPGASQPCILEPCPGPSWQGPKAGDSILTVDVA [GALR2] | 2060 ± 420 |  |
| MEPRNQTSASQFILLGLSEKPEQETLLFSLFFCMYLVMVVGNLLIILAISIDSHLHTPMYFFLANLSLVDFCLATNTIPKMLVSLQTGSKAISYPCCLIQMYFFHFFGIVDSVIIAMMAYDRFVAICHPLHYAKIMSLRLCRLLVGALWAFSCFISLTHILLMARLVFCGSHEVPHYFCDLTPILRLSCTDTSVNRIFILIVAGMVIATPFVCILASYARILVAIMKVPSAGGRKKAFSTCSSHLSVVALFYGTTIGVYLCPSSVLTTVKEKASAVMYTAVTPMLNPFIYSLRNRDLKGALRKLVNRKITSSS [OR1M1] |  | plasma membrane surface immunostaining intensity (GPCR class: A (Olfactory)): 130 ± 31 |
| METNSSLPTNISGGTPAVSAGYLFLDIITYLVFAVTFVLGVLGNGLVIWVAGFRMTHTVTTISYLNLAVADFCFTSTLPFFMVRKAMGGHWPFGWFLCKFVFTIVDINLFGSVFLIALIALDRCVCVLHPVWTQNHRTVSLAKKVIIGPWVMALLLTLPVIIRVTTVPGKTGTVACTFNFSPWTNDPKERINVAVAMLTVRGIIRFIIGFSAPMSIVAVSYGLIATKIHKQGLIKSSRPLRVLSFVAAAFFLCWSPYQVVALIATVRIRELLQGMYKEIGIAVDVTSALAFFNSCLNPMLYVFMGQDFRERLIHALPASLERALTEDSTQTSDTATNSTLPSAEVELQAK [FPR1] | 6448 ± 46 |  |
| MANSASPEQNQNHCSAINNSIPLMQGNLPTLTLSGKIRVTVTFFLFLLSATFNASFLLKLQKWTQKKEKGKKLSRMKLLLKHLTLANLLETLIVMPLDGMWNITVQWYAGELLCKVLSYLKLFSMYAPAFMMVVISLDRSLAITRPLALKSNSKVGQSMVGLAWILSSVFAGPQLYIFRMIHLADSSGQTKVFSQCVTHCSFSQWWHQAFYNFFTFSCLFIIPLFIMLICNAKIIFTLTRVLHQDPHELQLNQSKNNIPRARLKTLKMTVAFATSFTVCWTPYYVLGIWYWFDPEMLNRLSDPVNHFFFLFAFLNPCFDPLIYGYFSL [GNRHR] | 160 ± 34 |  |
| MQPPPSLCGRALVALVLACGLSRIWGEERGFPPDRATPLLQTAEIMTPPTKTLWPKGSNASLARSLAPAEVPKGDRTAGSPPRTISPPPCQGPIEIKETFKYINTVVSCLVFVLGIIGNSTLLRIIYKNKCMRNGPNILIASLALGDLLHIVIDIPINVYKLLAEDWPFGAEMCKLVPFIQKASVGITVLSLCALSIDRYRAVASWSRIKGIGVPKWTAVEIVLIWVVSVVLAVPEAIGFDIITMDYKGSYLRICLLHPVQKTAFMQFYKTAKDWWLFSFYFCLPLAITAFFYTLMTCEMLRKKSGMQIALNDHLKQRREVAKTVFCLVLVFALCWLPLHLSRILKLTLYNQNDPNRCELLSFLLVLDYIGINMASLNSCINPIALYLVSKRFKNCFKSCLCCWCQSFEEKQSLEEKQSCLKFKANDHGYDNFRSSNKYSSS [EDNRB] | 794 ± 140 |  |
| MAGAPGPLRLALLLLGMVGRAGPRPQGATVSLWETVQKWREYRRQCQRSLTEDPPPATDLFCNRTFDEYACWPDGEPGSFVNVSCPWYLPWASSVPQGHVYRFCTAEGLWLQKDNSSLPWRDLSECEESKRGERSSPEEQLLFLYIIYTVGYALSFSALVIASAILLGFRHLHCTRNYIHLNLFASFILRALSVFIKDAALKWMYSTAAQQHQWDGLLSYQDSLSCRLVFLLMQYCVAANYYWLLVEGVYLYTLLAFSVLSEQWIFRLYVSIGWGVPLLFVVPWGIVKYLYEDEGCWTRNSNMNYWLIIRLPILFAIGVNFLIFVRVICIVVSKLKANLMCKTDIKCRLAKSTLTLIPLLGTHEVIFAFVMDEHARGTLRFIKLFTELSFTSFQGLMVAILYCFVNNEVQLEFRKSWERWRLEHLHIQRDSSMKPLKCPTSSLSSGATAGSSMYTATCQASCS [GLP1R] |  | plasma membrane surface immunostaining intensity (GPCR class: B): 560 ± 52 |
